{"source": "a protein production outcome set (Wang et al. 2014)", "test": "label from the status in PepcDB records"}
{"sequence": "MYDNENPNGFGSNPEENNDDNISGTENNNFEEVNSQQVSQDAVNSSEQNTEQTAEQESSVYRQSYVNDEHHNADDVSGNGTYYSQGSNNSSNDSTQNGSYYNNTQDGSYYNSNSNNSQNNGYYYSTNDSQTNNGYNYNSNNNNNGNGKKKKKKRTLIAVVAVCVVLLAGTIGISAAYFSKNKDSLTNVLEDGTLSNNNNNSNSNNDNSSDSGNYESIGSTNTQNDANSSSTSGVTVTDVSSVVSSAMPSVVAITSKTLVESRNDYSQDIWEYYFGGGNSGNNKSNSYEEDAAGSGIIVDQTSTELLIVTNNHVVEGADSLKIQFAGTESKDSVDGYIKGTDSTKDVAVVAVKLKDIPSDVLKNIKKATLGDSDKVNVGEGVIAIGNALGYGQSVTTGIISAKDRKVQLENQTMTLLQTDAAINGGNSGGALLNASGEVIGINVAKYSSSGSSSNASVEGMGFAIPISSVKDIISDLETKETRTKVSEDERGYLGISGFDVDEQTSQAYSIPQGIQVQSVVKGGPAENAGIAASDVITKFDGQDVSSMASLQSMLEYYKKGEQVKVTIEYRDGREYKTKDVTVTLGDKSVIETTQNAAN", "values": [{"measurement": "protein production", "result": "failed"}]}
{"sequence": "MDVVDSLLVNGSNITPPCELGLENETLFCLDQPRPSKEWQPAVQILLYSLIFLLSVLGNTLVITVLIRNKRMRTVTNIFLLSLAVSDLMLCLFCMPFNLIPNLLKDFIFGSAVCKTTTYFMGTSVSVSTFNLVAISLERYGAICKPLQSRVWQTKSHALKVIAATWCLSFTIMTPYPIYSNLVPFTKNNNQTANMCRFLLPNDVMQQSWHTFLLLILFLIPGIVMMVAYGLISLELYQGIKFEASQKKSAKERKPSTTSSGKYEDSDGCYLQKTRPPRKLELRQLSTGSSSRANRIRSNSSAANLMAKKRVIRMLIVIVVLFFLCWMPIFSANAWRAYDTASAERRLSGTPISFILLLSYTSSCVNPIIYCFMNKRFRLGFMATFPCCPNPGPPGARGEVGEEEEGGTTGASLSRFSYSHMSASVPPQ", "values": [{"measurement": "protein production", "result": "failed"}]}
{"sequence": "MKKASFVYSENQLSYQFHSTHPFNHQRLRLTYDLLKSMDALDDSEIVAPRVATEAELRLIHDQAFIDAVKAAGNGTLSDGVALNYGLGTEDTPIFKNMHEAAALLVGGTLTAVDQVMEGHAEHACHLGGGLHHGFRGKASGFCVYNDSSIAIEYMRRKFGARVLYIDTDAHHGDGVQWAFYEEDDVCTLSIHETGRYLFPGTGNFNEKGQGEGYGYSINIPLDAFTEDDSFLFAYEQAVTNVVKFFKPDVILTQNGADAHFHDPLTHLCASMRTFRYIPQLAHALAHEYCEGRWIAVGGGGYDIWRVVPRAWAMIWLEMTDQLQKANGPLPERWLSKWTTYAQHPLPSHWEDENEELPTIPRRDEITEKNKKIVEKALYHIYTELKTQT", "values": [{"measurement": "protein production", "result": "failed"}]}
{"sequence": "MNVTTTRFGEIAVEEAKIITLPDGMLGFSEKRFVLLTPQNITPFCWLQSVENPELAFVVVDTKECASDYAVKLTAEESEKLCVNDGDEVVLLAVVTMASDPFNITVNLQGPIALNPKRMLAKQIVLEGSRYTTKHPFFDQAARSKAPGKRNASGEVTAA", "values": [{"measurement": "protein production", "result": "not failed"}]}
{"sequence": "MSTSWRIRIMLTIHAKLVEAMLAQAHKDHPFEICGVIAGPEKSNLPLRLIPMRNAAQSETFFKFDPQEQLQVWREMEARGEEPIVIYHSHTHTPAYPSRTDVQYASQPQSHYVIVPTDPAYGEEIRSFRILDGMVTEERIRMINSYKAEWELSMEAMVALEHHHHHH", "values": [{"measurement": "protein production", "result": "not failed"}]}
{"sequence": "MEHEYQRAVTRVCVQTALLLLQHGAESTVVVQMAQRLGVALGVESVECALTANAVVLTTLSDNHCITTARKNTDKGINMQMVTDVQRIVIAVEHHLYELEIAQRKLDQLKPLKYNRWLVVFMIGLSCAAFAHLSSGDWIICGITIFMLKLLYDMLFAAIPAVGFALVFNVPPKALKYCAILAALGHVTRTLLLHINMPIVFATFFATCVIGFLGVHLSHRYLAHPKAFTVAAIIPMIPGVHAYKAMISMVQIHHFGFSDALFEQMISSFINTSFILGAIVFGLALPGLLFYRQKPVV", "values": [{"measurement": "protein production", "result": "failed"}]}
{"sequence": "MAFPQRKRTPSFSSSVLDSVYRSIDESDGLQSDLKGSINENVSSSSSSPSPNKKDDKLTTLRRAIMDEEHWLYARSSTTTTNSSDSSSFSSSEAESYRTKRRLRKLAEQGKRSGDERQRTKRTVMDNDSRLFSKSDDDKKPKAVKIIEELKRSKQPVSPGARLTSFLNSIFQSNAKKVKLCSVGKTTDVKSSSSKSCFSRTRNKTDNNNNNCKKLERSIRFYPVRVTIDGDCRDYAQKHITRVRKPIPEFTAKKSVKEEIKTNDHHTEFTCITRNIGLKDFVRSNKYEGKEEEEDAWSHSSSDLFELDSYRIGMGRYLKELPVYETTDFKTNQAIARSLLL", "values": [{"measurement": "protein production", "result": "failed"}]}
{"sequence": "MVKYEELLKTLENGINSEEGEIRLVRKSQGRFKEEFNFDLSLGSKPLLTLKVFLGRKPYWQPWVEVFGVNPNLRNVFFGSEAERKLYEFLSEHFGRIFVEYFEDKETTYELQKGVPPALSRLGFELLKLGYTYFRDWYIPEGLMEGGHKIQAEKPKTEEAKKRHLENLKKEFEEFIGKCEDEGLIKKVKERYNFLEHEGSS", "values": [{"measurement": "protein production", "result": "not failed"}]}
{"sequence": "MGHHHHHHSHMTLEEFSAGEQKTERMDKVGDALEEVLSKALSQRTITVGVYEAAKLLNVDPDNVVLCLLAADEDDDRDVALQIHFTLIQAFCCENDINILRVSNPGRLAELLLLETDAGPAASEGAEQPPDLHCVLVTNPHSSQWKDPALSQLICFCRESRYMDQWVPVINLPER", "values": [{"measurement": "protein production", "result": "failed"}]}
{"sequence": "MAPPTAAPEPNTVPETSPTGHRMFSRIRLATPTDVPFIHKLIHQMAVFERLTHLFVATESGLASTLFNSRPFQAVTVFLLEISPSPFPTTHDASSPDFTPFLETHKVDLPIEDPDREKFLPDKLNDVVVAGFVLFFPNYPSFLAKQGFYIEDIFMREPYRRKGFGKLLLTAVAKQAVKLGVGRVEWIVIDWNVNAINFYEQMGAQVFKEWRLCRLTGDALQAIDKLNI", "values": [{"measurement": "protein production", "result": "failed"}]}
{"sequence": "MLKANVFCAGPVEALILDWAGTTIDFGSLAPVYAFMELFKQEGIEVTQAEAREPMGTEKSEHIRRMLGNSRIANAWLSIKGQASNEEDIKRLYDLFAPIQTRIVAQRSQLIPGWKEVFDKLIAQGIKVGGNTGYGPGMMAPALIAAKEQGYTPASTVFATDVVRGRPFPDMALKVALELEVGHVNGCIKVDDTLPGIEEGLRAGMWTVGVSCSGNEVGLDREDWQALSSDEQQSYRQHAEQRLFNAGAHYVIDSVADLETVITDVNRRLARGEKP", "values": [{"measurement": "protein production", "result": "not failed"}]}
{"sequence": "MADERYNRKNPAVKRILQEVKEMQANPSDDFMSLPLEENIFEWQFAIRGPGDTEFEGGIYHGRIQLPADYPFKPPSFMLLTPNGRFETNTKICLSISNYHPEHWQPSWSVRTALVALIAFMPTSPNGALGSVDYPKDERRTLAIKSRETPPKYGSPERQKIIDEIHQYILSKATVVPKPLPLECSQAPSIVSEAHSQVEPQEAITVVEERSIATTDTIVDDQIIEETAEAVNTAASVVPAAAPLPAVEVVVKASVSGEQRMARRAAQKPVDDRLFTWAAVGLTIAIMVLLLKKFIKSNGYSTGFMDDQS", "values": [{"measurement": "protein production", "result": "failed"}]}
{"sequence": "SCGDKMNKNTGALEFDSIQVNETAHLFGDTAKPACNLTINFAYPVKSTDNKLKDSLNSYFIAACFGEGYIGEKPAQVVKEYTEHYVKEYRTDLEPMYAEDEKNKESEGSIGAWYSYYKGIESHVQLYYKNLLVYRINYNEYTGGAHGIYMTTFLNMDLINLRPLKLDDIFTGDYKEALTDLLWNQLMADKKVTTHEALEDMGYGSTGDIAPTENFYLDKDGITFYYNVYDITPYAMGPVEIKIPYEMMEHMLGSNPIIGEMKSK", "values": [{"measurement": "protein production", "result": "not failed"}]}
{"sequence": "MKKLTVYLATTNPHKVEEIKMIAPEWMEILPSPEKIEVVEDGETFLENSVKKAVVYGKKLKHPVMADDSGLVIYSLGGFPGVMSARFMEEHSYKEKMRTILKMLEGKDRRAAFVCSATFFDPVENTLISVEDRVEGRIANEIRGTGGFGYDPFFIPDGYDKTFGEIPHLKEKISHRSKAFRKLFSVLEKILESENR", "values": [{"measurement": "protein production", "result": "not failed"}]}
{"sequence": "MKNSNRLIYTDNLEESLEETASLFEHHIKFYTEIIEKDKKVIKTFNKDFKIEHAKEVISKAHLKHSELNAFLIAAPSYGIEAQNALLKILEEPPNNVCFIMFAKSQNHVLATIKSRLIKEDKRQKIPLKPLDLDLSKLDLKDIYAFLKNLDKENFDSRENQRERIESLLESVNRHKIPLNEQELQAFDLAIKANSSYYKLSYNLLPLLLSLLSKKKTP", "values": [{"measurement": "protein production", "result": "failed"}]}
{"sequence": "MSDPSAKPLQEHILIILDDAGRREVLLTETFYTIGRSPRADIRIKSQFVSRIHAVLVRKSSDDVQAAYRIIDGDEDGQSSVNGLMINGKKVQEHIIQTGDEIVMGPQVSVRYEYRRRDQFGTMPGNEQFDITLIDPGMIDDEEEIPTSVSSSPPEME", "values": [{"measurement": "protein production", "result": "failed"}]}
{"sequence": "MSLTEYVHGYSEREALRLSEQAETLEKLLHHDTVYPPGAKVLEAGCGIGAQTVILAKNNPDAEITSIDISPESLEKARENTEKNGIKNVKFLQANIFSLPFEDSSFDHIFVCFVLEHLQSPEEALKSLKKVLKPGGTITVIEGDHGSCYFHPEGKKAIEAWNCLIRVQAYMKGNSLVGRQIYPLLQESGFEKIRVEPRMVYIDSSKPELVDGFILKTIIPMVEGVKEQSLKMQIIKEEEWEKGIEELHKTAEHGGTFCYTFFKGWGTKEGHHHHHH", "values": [{"measurement": "protein production", "result": "not failed"}]}
{"sequence": "MNDQELRAYLSQAKTIAVLGAHKDPSRPAHYVPRYLREQGYRVLPVNPRFQGEELFGEEAVASLLDLKEPVDILDVFRPPSALMDHLPEVLALRPGLVWLQSGIRHPEFEKALKEAGIPVVADRCLMVEHKRLFRGPLPL", "values": [{"measurement": "protein production", "result": "not failed"}]}
{"sequence": "MRSVRKRTVLVSTLLALVLTQVARADDKGSHPAVIGDVHFKVECNATAQAKFNVAVAYYHSFQWQRVIATADDVLKVDPTCGMAHWVKALAMLDNPFAWPVTLSEKAIAEGPVLLDAARKAGLKTQRERDYVDALAIFFKDLNTTNYRERAESFEKAMAQLAQQNADDSEATVLYALILSRNFDPTDKTYRNQLHAAELLEPIFAREPNHPGVAHYLIHSYDYPPLAKRGIDAARKYAKIAPDTPHSLHMPSHIFTLTGFWQESIDTNRRAAEMADDSITHDGHHASDYMVYAHLQLGQDLAARKIMEQEQVRHGIDMIGVAYPYAAIPARIALERRAWREAADLPLYARDTYPWKKYPQAEAVNAFARGVGSAMSGEPAKANFEAKRLIKLRDAATAMKLNYWADQIDIQAEVVRGLADFAEGKRDEGIAILHRAAEREDASAKNVVTPGPVVPAREMLATILERDRKPADALAEFEKVLEQHPNRYRTIAGAAQNAKQAGNEQKADHYAELLLKLAEHADSPRPEIAEAKSMLGM", "values": [{"measurement": "protein production", "result": "failed"}]}
{"sequence": "MTNAGTTDLSWLPSDADEQLALGFKIVTNAYKTRVTSQEAEIRSLKGQLTEKQEQLSSIQKKYSNLEVQLIESTQRGNQLADENKQLITTIKKLNRDIDRLENLKKAVLNSIQEEHDVEDAHKYYSADDLLQTTAPRTMLEMNGNEDSCQSIINKIVNSDTHNIINGSFNSPYIGNVPLGEKNTDGRAFFRNARSRLSYEQFNQFLSNIKKLNNHQQKREETLKKAQAIFGEANLDLYEEFKVLISKHS", "values": [{"measurement": "protein production", "result": "failed"}]}
{"sequence": "NGKIALEEHFATEETLMDSAGFVPDKDWPELRSRLLDIQDRRVRLMDEHGIETMILSLNAPAVQAIADSTRANETARRANDFLAEQVAKQPTRFRGFAALPMQDPELAARELERCVKELGFVGALVNGFSQDNRSAVPLYYDMAQYWPFWETVQALDVPFYLHPRNPLPSDARIYDGHAWLLGPTWAFGQETAVHALRLMGSGLFDKYPALKIILGHMGEGLPYSMWRIDHRNAWIKTTPKYPAKRKIVDYFNENFYLTTSGNFRTQTLIDAILEIGADRILFSTDWPFENIDHAADWFENTSISEADRKKIGWGNAQNLFKLNR", "values": [{"measurement": "protein production", "result": "not failed"}]}
{"sequence": "LEQVQESKAESTAPSSDAVVVSKTNTSSMPVAELRSLIDDLTTQMGTAARELKFELAGRLRDEIAELKKELRGMEEIGLA", "values": [{"measurement": "protein production", "result": "failed"}]}
{"sequence": "QKRLRRKLHEYQKNIPPQVRAARLADDINAKLGRPLQYQNRGRIEYLITLNGPEPHEYRNSPIDYQHYIDKQLKPVADAILPFIGTDFETLSAPQMGLF", "values": [{"measurement": "protein production", "result": "failed"}]}
